B1: Vpu with LgBiT fused to its C-terminus (pBiT1.1-C-vpu) [HIV-1] / RBM10 fused to SmBiT (pBiT2.1-C-rbm10) [human] (parent complex)
chain 1: MQPIQIAIAALVVAIIIAIVVWSIVIIEYRKILRQRKIDRLIDRLIERAEDSGNESEGEISALVEMGVEMGHHAPWDIDDL
chain 2: MEYERRGGRGDRTGRYGATDRSQDDGGENRSRDHDYRDMDYRSYPREYGSQEGKHDYDDSSEEQSAEDSYEASPGSETQRRRRRRHRHSPTGPPGFPRDGDYRDQDYRTEQGEEEEEEEDEEEEEKASNIVMLRMLPQAATEDDIRGQLQSHGVQAREVRLMRNKSSGQSRGFAFVEFSHLQDATRWMEANQHSLNILGQKVSMHYSDPKPKINEDWLCNKCGVQNFKRREKCFKCGVPKSEAEQKLPLGTRLDQQTLPLGGRELSQGLLPLPQPYQAQGVLASQALSQGSEPSSENANDTIILRNLNPHSTMDSILGALAPYAVLSSSNVRVIKDKQTQLNRGFAFIQLSTIVEAAQLLQILQALHPPLTIDGKTINVEFAKGSKRDMASNEGSRISAASVASTAIAAAQWAISQASQGGEGTWATSEEPPVDYSYYQQDEGYGNSQGTESSLYAHGYLKGTKGPGITGTKGDPTGAGPEASLEPGADSVSMQAFSRAQPGAAPGIYQQSAEASSSQGTAANSQSYTIMSPAVLKSELQSPTHPSSALPPATSPTAQESYSQYPVPDVSTYQYDETSGYYYDPQTGLYYDPNSQYYYNAQSQQYLYWDGERRTYVPALEQSADGHKETGAPSKEGKEKKEKHKTKTAQQIAKDMERWARSLNKQKENFKNSFQPISSLRDDERRESATADAGYAILEKKGALAERQHTSMDLPKLASDDRPSPPRGLVAAYSGESDSEEEQERGGPEREEKLTDWQKLACLLCRRQFPSKEALIRHQQLSGLHKQNLEIHRRAHLSENELEALEKNDMEQMKYRDRAAERREKYGIPEPPEPKRRKYGGISTASVDFEQPTRDGLGSDNIGSRMLQAMGWKEGSGLGRKKQGIVTPIEAQTRVRGSGLGARGSSYGVTSTESYKETLHKTMVTRFNEAQ

Variants of B1 are the subject of this test. The test is described as follows: NanoBiT luciferase complementation reporter assay; HEK293T cells, co-transfection, read after 2 days; parent: 1; read off a plot. A general note: Reporter assays use an easily measured gene product as a stand-in for the process of interest.
Regarding chain 1 D77A, the ratio to parent was around 0.6. Then chain 1 I26A, with around 0.56. Take chain 1 R34A: the ratio to parent is around 0.63. For chain 1 H73A, the ratio to parent was around 0.98. As to chain 1 V25A, the ratio to parent was around 0.41.

Source of the values: publication PMC12363165 (2025).
